Source: the nanobody polyreactivity screen of Harvey et al. (2022)

Test: yeast display, Sf9 membrane polyspecificity reagent, FACS + sequencing; frameworks hold sequencing errors
Outline: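 A nanobody's polyreactivity label depends on the gate it was sorted from. Yeast display cells were stained with 10% biotinylated, detergent-solubilized Sf9 membrane reagent for 1 hour at 4 °C, enriched on streptavidin microbeads and sorted by FACS. The low and high (top ~1%) gates were set on anti-HA fluorescence for expression and streptavidin fluorescence for reagent binding.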

Sequence	polyreactivity (PSR sort gate)
QVQLVESVGGLVQAGGSLRLSCAASGLTFGSYAMGWYRQAPGTDRELVAGINQSGGSTYYADSVKGRFTISRDNAKNTVSFQMNSLNPEDTAVYYCNAEAWVSQDWWQWVAYVYWGQGTQVTVSS	high polyreactivity
QVQLVESGGGLVQAGGSLRLSCAASGFTFRKNAMGWYRQAPGKERELVAAISSGTSTYYADSVKGRFTISRDNAKNTVYLQMNSLKPEDTAVYYCNAVSRKVYPGPMDYWGQGTQVTVSS	high polyreactivity
QVQLVESGGGLVQAGGSLRLSCAACGSTFFRNAMGWYRQAPGKERELVAAISKSGTSTYYADSVKGRFTISRDNAKNTVYLQMNSLKPEDTAVYYCAADSRYPWRGDYWGQGTQVTVSS	high polyreactivity
QVQLVESGGGLVQAGGSLRLSCAASGRTFGRYDMGWYRQAPGKERELVAAITGGVITTYADSVKGRFTISRDNAKNTVYLQMKSLKREDTAVYDCAARYNVFPSPHYYYWGQGTQVTVSS	low polyreactivity
QVQLVESGGGLVQAGGSLRLSCAASGSIFYVYAMGWYRQAPGKERELVASINKSGGSTYYADSVKGRFTISRDNAKNTVYLQMNSLKPEDTAVYYCAARTGWPRVGFQYPAHVGFDYWGQGTQVTVSS	low polyreactivity
QVQLVESGGGLVQAGGSLRLSCAASGGIFYGYAMGWYRQAPGKERELVASITSDGSTYADSVKGRFTISRDNAKNTVYLQMNSLKPEDTAVYYCNKEILVIVTYDYWGQGTQVTVSS	low polyreactivity
QVQLVESGGGLVQAGASLRLSCAPSGSIFLAYAMGWYRQAPGKEREFVAALSFTDGSTYYADSVKGRFTISRDNAKNTVYLQMNSLKPEDTAVYYCNKGASPDDYDYWGQGTQVTVSS	low polyreactivity
QGQLVESGGGLVQAGGSLRLSCAASGLTFGYYDMGWYRQAPGKERELVAAITVRGGSTYYADSVKGRFTISRDNAKNTVYLQINSLKPEDTAVYYFNKRLFWSRHYYYWGQGTQVTVSS	high polyreactivity
QVQLVESGGGLVQAGGSLRLSCAASGFIFQRNAMGWYRQAPGKERELVAAIRSSGGTTYYADSVKGRFTISRDNAKNTVYLQMNSLKPEDTAVYYCAAVTTSKFNYWGQGSQVTVSS	low polyreactivity
QVQLVESGGGLVQAGGSLRLSCAASGSTFGLYAMGWYRQAPGKERELVAAISSRGSRTYYADSVKGRFTISRDNAKNTVYLQMNSLKPEDTAVYYCNALYASSVRHKVTYDYWGQGTQVTVSS	high polyreactivity
QVQLVESGGGLVQAGGSLRLSCAASGFTFTYYDMGWYRQAPGKERELDAAISWSGDYTYYADSVKGRFTISRDNAKNTVYLQMNSLKPEDTAVYYCAALWDVRGYWSSGGYYWGQGTQVTVSS	high polyreactivity
QVQLVESGGGLVQAGGSLRLSCAASGRTCAYNAMGWYRQAPGKERELVAAITDSDGNTYYADSVKGRFTISRDNAKNTVYLQMNSLKPEDTAVYYCAADYIILDHVTRGFGYEYWGQGTQVTVSS	low polyreactivity
QVQLVESGGGLVQAGGSLRLSCAASGNTFYDNAMGWYRQTPGKERELVAAISYNDGDTYYADSVKGRFTISRDNAKNTVYLQMNSLKPEDTAVYFCAAVVRRVRGARGQEGDNYWGQGTQVTVSS	high polyreactivity
QVHLVESGGGLVQAGGILRLSCAAFGFTFKSYAMVWYIQAPGKERELVAGITSSGGGTYYADSVKGRFTISRDNAKNTVYLQMNSLKPEDTAVYYCNTYSYLFSRYGYWGQGTQVTVSS	high polyreactivity
QVQLVESGGGLVQAGGSLRLSCAASGRTFQYNAMGWYRQAPGKERELVAAISWSDGITYYADSVKGSFTISRDNAKNTVYLQMNSLKPEDTAVYYCAAEGYGLSYYFPYDFWGQGTQVTVSS	high polyreactivity
QVQLVESGGGLVPARGSLRLSCAASGNIFFVYDMGWYRQAPGKERELVAAISWSGGSTYADSVKGRFTISRDNGKNNVYLQMNSLKPEDTGVYYCAADVAYVEYDYWGQGSQVTVSS	low polyreactivity
QVQLVESFGGLVHAGGSLRLSCAASGFTFTSYTMGWYRQAPGKEREMVAAITNTGGSTYYADSVKGRFTISRDNAKNYVYLQMNSLKQEDTWVYYCAARTHIYGKFWRFYWGQGTQVTVSS	low polyreactivity
QVQLVESGGGLVQAGGSLRLSCAASGRIFSRYAMGWYRQAPGKERELVASIRSGGSTYYADSVKGRFTIARDNAKNTVYVQMNSLKPEDTAVYYCAKGTFDLHYRKRYNYWGQGTQVTVSS	low polyreactivity
QVQLVESGGGLVQAGGSLRLSCAASGSTFYLNAMGWYRPAPGKERELVAAISSGGRTYYADSVKGRFTISRDNAKNTVYLQMISLKPEDTGVYYCNAVRYLRGAYNYWGQGTQVTVSS	high polyreactivity
QVQLVESGGGLVQAGGSLRLSCAASGSIFYVYAMVWYRQAPGKEREFVASIRTSGSSTYADSVKGRFTISRDNAKNTVYLQMNSLKPEDTAVYYCAAGSITVFWKRTGYRWRGYDYWGQGTQVTVSS	low polyreactivity
QVQLVETGGGLVQAGGSLRLSCAASGSIFTRYVMGWYRQAPGKERELVAAISRSSGRTYYADSVKGRFTISRDNAKNTVYLQMNSLKPEDTAVYYCAAYAVESYKYDYWGQGTQVTVSS	high polyreactivity
QVQLVESGGGLVQAGGSLRLSCAASGSTFRGNAMGWYRQAPWKEREFVASISRRGGRTNYADSVKGRFTISRDNAKNTVYLQMNSLKPEDTAVYYCAAGRYRYKYRYFTAWYGYWGQGTQVTVSS	high polyreactivity

Sequence	polyreactivity (PSR sort gate)
QVQLVESGGGLVQAGGSLRLSCAASGYTFYYAMGWYRQAPGKERELVAAISAGGGRTYYADSVKGRFTISRDNAKNTVYLQMNSLKPEDTAVYYCAGDYFYSQVAYVYWGQGTQLTVSS	high polyreactivity
QVQLVESGGGLVQAGGSLRLSCAASGSTFRYYALGWYRQAPGKERELVASISIGGGPTYYADSVKGRFTISRDNAKNTVYLQMHIQKPEDTAVYYCAAERTIRAARPVVRTFDYWGHGTQVTVSS	low polyreactivity
QVQLQESGGGLVRAGGSLRMSCAASGNIFDADIMGWYRQAPGKERELVASITDGRRTNYADSVKGRYTISRDSEKNTVYLQMNSLKPEDTAVYYCAAIAYPVVPTYFDYDSDYFHWGQGTQVTVRS	high polyreactivity
QVQLVESGGGLVQAGGSLRLSCAASGRTFRYYAMGWYRQAPGKERELVAAISRGDSTHYADSVKGRFTISRDNAKNTVYLQMNSLKPEDTAVDYCAAYRGRSVDRQPYYCGQGTQVTVSS	high polyreactivity
QVQLVESGGGLLQAGGSLRLSCAASGRIFSTNAMGWYRQAPGKERELVAAITNGGNTNYADSVKGRFTISRDNAKITVYLQMNSLKQEDTAVYYCAKAVAYSWVDGYGYEYWGQGTQVTVSS	low polyreactivity
QVQLGESGGCLGQAGGSLRLSCAASGYTFPYNVMGWYRQAPGKERELDAAITSSGGSTYYADSVKGRFTISRDNAKNTVYLQMNRLKPEDTAVYYCNAYPSSSLFDYWGQGTQVTVSS	low polyreactivity
QVQLVESGGGLVQEGGSLSLSCAASGSTFTVYNMGWYRKAPGEERELVAANSRRGDSTYYADSVKGRFTISRDNAKNTVYSQMHSLKPEETAVYYSNARSAYGTGNQRGRRYYWGQGTEVTVSS	high polyreactivity
HVQLVESAGGLVQAGGSLSLSCAASGSTFKLYAMGRYRQAPGKESEFVAGISWRGGSTYYADSVKGRFTISRDNAKNTVYFQMNSLKPEDTAVYYCAARSFSNIGYHGYGYWGQGTQVTVSS	high polyreactivity
QVQLVESGGGIVEAGGSLRLSCAASGSTYYWNAMVWYIQAPGKERELVAAISRDGSTYYADSVNGRFTISRDNAKKTVYLHMNCLKPEVTAVYYCAKACVTNVVVVDSVFAYDYWGQGTIVTVSS	low polyreactivity
QVQLVESGGGLVQARGSLRLSCAASGSIFTYNAMGWYRQAPGKERELVAAIDYSGGSTYYADSVKGRFTISRDNAKNTVYLQMKSLKPEDTAVYYCAAPWVPYPGYSLYGYDYWGQGTQVSVSS	low polyreactivity
QVQLVESGAGLVQAGGSLRLSCAASGSIFTENSMGWYRQAPGKEREMVAAIRWDDGHTYYADSVKGRFTISRDNAKNTVYLQMNSLKPEDTAVYYCNADKWSSTDDWLYDYWGQGTQVTVSS	low polyreactivity
QVQVVESGGGLVKAGGSLSLSCDASGITFVAYAMGWYRQAPGKERELVAAISYNGGSTNYADSVKGRFTISRDNAMNTVYLQINSLKPEDTAVFYCAADLADFYPRFNYWGQGTQVTVSS	low polyreactivity
QVQLVESGGGLVQAGGSLRLSCAASGSIFRTNAMGWYRQAPGKEREYVATISSDSGNTYYADSVKGRFTISRDNAKNTVYLQMNSLKPEDTAVYYCARRKVRYWSYRAANYYWGQGTQVTVSS	low polyreactivity
QVQLVESGGGLVQAGGSLRLSCAASGRTFGVYAMGWSRQAPGKERELVAGIRWRGGSTYYADSVKGRFTISRDNEKKTVYFQMNSLKPEETAVYYCAADVYLVKYDYWGQGTQVTVSS	low polyreactivity
QVQLVESGGGLVQAGGSLRISCAASGRTFRFYVMGWYRKAPGKERELVAAISRGGGSTYYADSVKGRFTISRDNAKNTVYLQMNSLKPEDTAVYYCNAVTSGKKYVADYNYWGQGTQVTVSS	high polyreactivity
QVQLVESGGGLVQAGGSLRLSCAASGSIFEDYTMGWYRQAPGKERELVAAIDWSDASTFYADSVKGRFTISRDNAKNTVYLQMSLKPEDTAVYYCNVAIIFYDDDYWGQGTLVTVSS	high polyreactivity
QVQLVESWGGLVQAGGSLRLSCAASGITFDGYDMGWYRQAPGKERELVATIDSGGITYYADSVKGRFTISRDNAKNTVYLQMNSLKPEDTAVYYCNADEWYYNFDIVEFDYWGQGTQVTVSS	low polyreactivity
QVNLVESGGGLVQAGGSLRLRCAASGSIYISYAMGWYRQAPGKERELVATIRSSGGRTHYSDSVKGRFTISRDNAKNTVYLQMNSLKPEDTPVYYCHYGVYQYPQDYDYWGEGTQVTVSS	low polyreactivity
QVQLVESGVGLVQAGGSLRLSCAASGITFDYYAMGLYRQAPGKERELVAAIRKSGGSTYYADSVKGRFTISRDNAKNTVYLQMNSLKPEDTAVYYCAAGVRSPFRGGYYWGQGTQVTVSS	high polyreactivity
QVQLVESGGGLVQAVGSLRLSCAAYGSTFYVNAMGWYRQAPGKEREFVAAITWNSGSTYYADSVKGRFTISRDNAKNTVYLQMNSLKPEDTAVYYCAAVLYVRVYGYDYWGQGTQVTVSS	low polyreactivity
QVQLVESGGGLLQAGGSLRLSCAASGRTYVWNAMGWSRQAPGKERELVAGISWRGGSTYYADSVKGRFRISRDNAKNTVYLQKNSLKPEDTAVYYFAASARFVTYKMYYWGQGTQVTVSS	high polyreactivity
